Test results: PMC11736000, “Structural and functional analysis of a bile salt hydrolase from the bison microbiome” (The Journal of Biological Chemistry, 2024)

Columns and labels:
Assay in all cases: steady-state kinetics (KM), o-phthaladehyde assay; HPLC/MS
Assay type in all cases: biochemical, Arthrobacter citreus
[1] = substrate: C[C@H](CCC(=O)NCC(=O)O)[C@H]1CC[C@H]2[C@@H]3CC[C@@H]4C[C@H](O)CC[C@]4(C)[C@H]3C[C@H](O)[C@]12C
[2] = substrate: C[C@H](CCC(=O)NCC(=O)O)[C@H]1CC[C@H]2[C@@H]3[C@H](O)C[C@@H]4C[C@H](O)CC[C@]4(C)[C@H]3C[C@H](O)[C@]12C
[3] = substrate: C[C@H](CCC(=O)NCCS(=O)(=O)O)[C@H]1CC[C@H]2[C@@H]3CC[C@@H]4C[C@H](O)CC[C@]4(C)[C@H]3C[C@H](O)[C@]12C

B1: bile salt hydrolase from Arthrobacter citreus EINP1 (BSHAc) (Arthrobacter citreus) (protein)
chain: CTGIRYSDGSGNLYLARNLDWTSDFGERVVVTPTGYTTKSPFGAVPAIRHAVIGMGIVQEDTPLYFDCGNDAGLAVAGLNFPGYAQYATEAVDGATNVAAFEFPLWVASQFASVDEVEAALADVVIVDRPINDKYPSSLLHWIIGDSKRAIVVEYTSDGLHVFDDDVDVLANQPGFGWHHENLRNYLNASPDFPEKIVLNRADLVPFGSGSLMRGIPGDYYSPSRFVRAAYVHAHYPGKSTEEENVSRAFHTLQQVAMVDGSAAMGSGEFEKTTYTGLFSSRTMTYYWNTYEDPAVRSVAMADHAADGTELVVV
notes: C-terminally hexahistidine-tagged recombinant BSHAc; NCBI WP_342023006.1
[1]
  Km: 0.38 mM
  kcat: 1630 ± 40 s⁻¹
  kcat/Km: 4.3e+06 ± 400000 M⁻¹ s⁻¹
[2]
  Km: 1.7 mM
  kcat: 1500 ± 50 s⁻¹
  kcat/Km: 880000 ± 10000 M⁻¹ s⁻¹
[3]
  Km: 0.74 mM
  kcat: 342 ± 6 s⁻¹
  kcat/Km: 460000 ± 50000 M⁻¹ s⁻¹
